T1: C57BL/6 mouse SIRPα ECD recombinant protein (6×His tagged) (C57BL/6 mouse, UniProt P97797 32-373)
T1 construct: extracellular domain; Bought from Biointron; not shown: 6×His tag
T1 sequence (looked up): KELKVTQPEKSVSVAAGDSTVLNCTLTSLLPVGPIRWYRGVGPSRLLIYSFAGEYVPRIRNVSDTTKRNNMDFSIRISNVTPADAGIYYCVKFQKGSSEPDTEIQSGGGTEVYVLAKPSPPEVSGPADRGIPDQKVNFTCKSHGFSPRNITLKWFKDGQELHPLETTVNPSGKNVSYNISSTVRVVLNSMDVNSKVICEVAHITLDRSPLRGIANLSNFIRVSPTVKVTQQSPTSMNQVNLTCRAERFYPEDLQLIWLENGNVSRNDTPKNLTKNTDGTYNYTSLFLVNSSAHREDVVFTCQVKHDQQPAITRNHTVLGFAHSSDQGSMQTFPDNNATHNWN


Columns and labels:
[1] = target: full length human SIRPα v1 with a small beta-gal fragment (ED) fused to its C-terminal, expressed in K562 … (human, UniProt P78324 31-504); assay: cell-based or functional assay
Sequence of full length human SIRPα v1 with a small beta-gal fragment (ED) fused to its C-terminal, expressed in K562 … (P78324 31-504): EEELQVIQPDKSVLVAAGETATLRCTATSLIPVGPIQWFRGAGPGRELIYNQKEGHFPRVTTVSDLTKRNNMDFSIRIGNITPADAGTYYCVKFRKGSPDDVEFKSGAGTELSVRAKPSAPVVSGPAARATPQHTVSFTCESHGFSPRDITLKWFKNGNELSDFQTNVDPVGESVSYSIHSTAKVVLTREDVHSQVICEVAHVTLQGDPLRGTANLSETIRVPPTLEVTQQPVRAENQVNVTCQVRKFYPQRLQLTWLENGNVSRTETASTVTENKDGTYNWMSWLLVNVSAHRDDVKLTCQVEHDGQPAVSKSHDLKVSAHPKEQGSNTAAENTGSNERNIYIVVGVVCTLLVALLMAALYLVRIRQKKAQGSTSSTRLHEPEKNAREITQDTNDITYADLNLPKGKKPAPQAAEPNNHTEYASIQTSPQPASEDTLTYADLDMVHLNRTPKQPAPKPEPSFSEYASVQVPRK

[2] = target: T2, full length human SIRPα v1 stably expressed on CHOK1 or 293F cells (human, UniProt P78324 31-504); assay: FACS, 293F-hSIRPα v1 cells
T2 construct: whole, on cells; also called CHOK1-human SIRPα v1; CHOK1-hSIRPα v1
T2 sequence (P78324 31-504): as above

[3] = target: T3, human SIRPβ ECD recombinant protein (6×His tagged) (human, UniProt O00241 30-371); assay: ELISA, hSIRPβ ECD
T3 construct: extracellular domain; Bought from Sino Biological; also called hSIRPβ ECD; not shown: 6×His tag
T3 sequence (O00241 30-371): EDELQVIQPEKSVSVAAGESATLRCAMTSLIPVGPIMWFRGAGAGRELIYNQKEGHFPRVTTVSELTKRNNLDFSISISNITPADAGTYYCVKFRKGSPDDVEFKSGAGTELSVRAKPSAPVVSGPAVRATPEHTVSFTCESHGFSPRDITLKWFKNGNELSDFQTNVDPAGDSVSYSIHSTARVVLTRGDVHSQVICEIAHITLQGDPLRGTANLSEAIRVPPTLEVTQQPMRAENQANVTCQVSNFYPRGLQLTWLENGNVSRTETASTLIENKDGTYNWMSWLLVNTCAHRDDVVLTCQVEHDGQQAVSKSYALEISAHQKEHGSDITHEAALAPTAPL
Description: (§1) Binding activity of the purified chimeric antibodies against SIRPβ and SIRPBI was detected by ELISA assay using recombinant proteins of human SIRPβ ECD (FIGS. 3A and 3B), human SIRPBI ECD (FIGS. 3D and 3E) and FACS assay using CHOK 1 cells stably expressing human SIRPB (FIG. 3C).

[4] = target: T4, human SIRPβL ECD recombinant protein (6×His tagged) (human, UniProt Q5TFQ8 30-371); assay: ELISA, hSIRPβI ECD
T4 construct: given variously as SIRPBL, SIRPBI and SIRPβI; Bought from Biointron; also called human SIRPBL ECD; human SIRPBI ECD
T4 sequence (Q5TFQ8 30-371 limits assumed): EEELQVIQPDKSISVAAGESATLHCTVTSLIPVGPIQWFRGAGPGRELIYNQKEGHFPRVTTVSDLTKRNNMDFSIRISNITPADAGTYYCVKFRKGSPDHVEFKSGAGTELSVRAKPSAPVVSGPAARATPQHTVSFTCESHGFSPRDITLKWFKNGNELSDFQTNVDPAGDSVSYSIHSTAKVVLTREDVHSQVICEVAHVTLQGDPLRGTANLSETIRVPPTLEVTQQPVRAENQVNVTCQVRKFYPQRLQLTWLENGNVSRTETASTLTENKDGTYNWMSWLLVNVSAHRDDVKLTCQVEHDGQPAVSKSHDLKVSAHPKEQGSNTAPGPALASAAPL
Description: as §1

[5] = target: T5, cyno SIRPγ ECD recombinant protein (cyno); assay: ELISA, cyno SIRPγ ECD
T5 construct: extracellular domain

[6] = target: T6, human SIRPβ stably expressed on CHOK1 cells (human, UniProt O00241 30-398); assay: FACS, CHOK1-hSIRPβ cells
T6 construct: whole, on cells; also called CHOK1-human SIRPB; CHOK1-hSIRPβ
T6 sequence (O00241 30-398): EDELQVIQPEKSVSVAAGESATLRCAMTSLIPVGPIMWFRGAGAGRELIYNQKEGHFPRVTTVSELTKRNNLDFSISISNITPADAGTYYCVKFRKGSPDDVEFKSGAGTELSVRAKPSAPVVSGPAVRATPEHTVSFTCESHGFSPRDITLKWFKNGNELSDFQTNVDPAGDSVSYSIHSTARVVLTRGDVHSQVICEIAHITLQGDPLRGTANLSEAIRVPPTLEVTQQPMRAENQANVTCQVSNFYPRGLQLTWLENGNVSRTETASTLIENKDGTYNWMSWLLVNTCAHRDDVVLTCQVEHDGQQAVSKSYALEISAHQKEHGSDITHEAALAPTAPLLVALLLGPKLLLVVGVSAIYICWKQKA
Description: as §1

[7] = target: T2, full length human SIRPα v1 stably …; assay: FACS, CHOK1-hSIRPα v1 cells
[8] = target: T7, human SIRPγ stably expressed on 293F cells (human, UniProt Q9P1W8 29-387); assay: FACS, 293F-human SIRPγ cells
T7 construct: whole, on cells
T7 sequence (Q9P1W8 29-387): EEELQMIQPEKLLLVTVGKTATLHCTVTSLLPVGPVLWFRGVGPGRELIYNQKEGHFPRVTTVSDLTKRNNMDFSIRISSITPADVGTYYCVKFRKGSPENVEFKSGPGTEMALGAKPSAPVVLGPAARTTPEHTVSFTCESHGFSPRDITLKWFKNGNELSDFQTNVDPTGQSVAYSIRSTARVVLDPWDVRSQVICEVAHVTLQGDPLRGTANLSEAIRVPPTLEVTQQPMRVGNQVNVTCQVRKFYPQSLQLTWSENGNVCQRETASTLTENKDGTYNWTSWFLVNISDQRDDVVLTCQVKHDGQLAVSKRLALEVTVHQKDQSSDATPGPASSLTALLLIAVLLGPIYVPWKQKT

[9] = target: Human SIRPα v1 (antigen of the Octet and Biacore affinity measurements) (human, UniProt P78324 31-370, limits assumed); assay: BLI (Octet), 1:1 binding model
Sequence of Human SIRPα v1 (antigen of the Octet and Biacore affinity measurements) (P78324 31-370 limits assumed): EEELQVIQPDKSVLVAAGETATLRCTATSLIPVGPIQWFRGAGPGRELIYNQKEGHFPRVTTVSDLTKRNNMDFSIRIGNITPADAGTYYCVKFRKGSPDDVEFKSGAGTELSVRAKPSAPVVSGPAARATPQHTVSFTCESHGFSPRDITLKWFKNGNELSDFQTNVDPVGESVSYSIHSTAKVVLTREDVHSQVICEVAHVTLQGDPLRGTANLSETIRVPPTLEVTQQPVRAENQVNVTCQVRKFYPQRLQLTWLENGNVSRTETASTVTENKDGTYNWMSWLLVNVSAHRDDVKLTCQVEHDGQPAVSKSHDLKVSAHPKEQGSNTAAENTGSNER
Procedure: The purified chimeric antibodies were characterized for binding affinity against human SIRPα v1, human SIRPα v2 using Bio-Layer Interferometry technology (Octet system). The association and dissociation curves were fit with 1:1 binding model, and the Ka/Kd/KD values for each antibody were calculated.

[10] = target: T8, human SIRPα v1 ECD recombinant protein (tag not given) (human, UniProt P78324 31-373); assay: competitive ELISA, mFc-CD47 ECD on coated SIRPα v1 ECD
T8 construct: extracellular domain; also called biotin labeled soluble human SIRPα v1 ECD recombinant protein; ELISA microplate coated human SIRPα v1 ECD
T8 sequence (P78324 31-373): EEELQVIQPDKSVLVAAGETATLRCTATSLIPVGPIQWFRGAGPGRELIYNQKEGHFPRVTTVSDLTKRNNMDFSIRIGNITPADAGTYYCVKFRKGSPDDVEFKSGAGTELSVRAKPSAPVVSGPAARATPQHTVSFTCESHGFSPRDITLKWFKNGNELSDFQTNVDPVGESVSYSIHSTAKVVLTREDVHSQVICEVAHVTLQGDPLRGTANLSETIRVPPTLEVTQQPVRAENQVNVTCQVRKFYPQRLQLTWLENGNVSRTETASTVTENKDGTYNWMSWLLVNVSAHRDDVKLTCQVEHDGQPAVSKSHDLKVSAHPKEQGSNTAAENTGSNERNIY
Procedure: (§2) Competitive ELISA assay was used to determine whether the purified chimeric antibodies can block CD47 and SIRPα interaction. Briefly, antibody and mFc tagged human CD47 ECD recombinant protein were co-incubated with ELISA microplate coated human SIRPα v1 ECD (FIGS. 6A and 6B) or human SIRPα v2 ECD (FIGS. 7A and 7B) recombinant protein. After washing, HRP labeled anti-mouse Fc 2nd antibody (Sigma) was added and incubated at 37° C. for 1 hour. Then, 100 μl/well of TMB solution (Biotechnology) was added. After incubation for 15 minutes at room temperature, the reaction was stopped by the addition of 50 μl of 1N HCl. OD 450 nm was read. Blocking ratio was determined by blockade of human CD47 ECD recombinant protein binding to ELISA microplate coated human SIRPα ECD recombinant protein. Other than 005, all antibodies as tested can block interaction between human CD47 and different human SIRPα variants.

[11] = target: T9, human SIRPα v2 ECD recombinant protein (tag not given) (human); assay: competitive ELISA, mFc-CD47 ECD on coated SIRPα v2 ECD
T9 construct: extracellular domain; also called ELISA microplate coated human SIRPα v2 ECD
Procedure: as §2

[12] = target: T2, full length human SIRPα v1 stably …; assay: competitive FACS, mFc-CD47 ECD on CHOK1-human SIRPα v1 cells
Procedure: Competitive FACS assay was also set up to further compare the blocking activity of the humanized antibodies and reference antibodies. Briefly antibody and mFc tagged human CD47 ECD recombinant protein were co-incubated with CHOK1 cells stably expressing human SIRPα v1 (FIG. 16A) or human SIRPα v2 (FIG. 16B). After washing, dye labeled anti-mouse Fc 2nd antibody (Sigma) was added and incubated at 37° C. for 1 hour. Fluorescence intensity was detected. Blocking ratio was determined by blockade of human CD47 ECD recombinant protein binding to SIRPα expressed CHOK1 cells. […] In particular, HEFLB doesn't work at all for human SIRPα v2.

[13] = target: T10, mFc tagged human SIRPα v1 ECD recombinant protein (human, UniProt P78324 31-373); assay: competitive ELISA binning, mFc-SIRPα v1 ECD; competitor 025c
T10 construct: extracellular domain; Bought from Biointron; not shown: mouse IgG Fc (mFc) tag
T10 sequence (P78324 31-373): as above
Procedure: (§3) Competitive ELISA assay was used for epitope binning of purified chimeric antibodies. Briefly excessive competitor antibody and mFc tagged human SIRPα v1 ECD recombinant protein were co-incubated with ELISA microplate coated antibody. After washing, HRP labeled anti-mouse Fc 2nd antibody (Sigma) was added and incubated at 37° C. for 1 hour. Then, 100 μl/well of TMB solution (Biotechnology) was added. After incubation for 15 minutes at room temperature, the reaction was stopped by the addition of 50 μl of 1N HCl. OD 450 nm was read. Competition ratio was calculated. The antibodies that can compete each other for binding to SIRPα may have related binding epitopes.

[14] = target: T10, mFc tagged human SIRPα v1 ECD …; assay: competitive ELISA binning, mFc-SIRPα v1 ECD; competitor 042c
Procedure: as §3

[15] = target: T10, mFc tagged human SIRPα v1 ECD …; assay: competitive ELISA binning, mFc-SIRPα v1 ECD; competitor hu1H9G4
Procedure: as §3

[16] = target: T1, C57BL/6 mouse SIRPα ECD recombinant …; assay: ELISA, recombinant C57BL/6 mouse SIRPα ECD
Description: Species cross reactivity of purified chimeric antibodies was detected by ELISA assay using recombinant protein of C57BL/6 mouse SIRPα ECD (FIG. 5A) and FACS assay using CHOK 1 cells stably expressing cyno SIRPα (FIGS. 5B and 5C). All antibodies as tested bind to cyno SIRPα at different levels but have no species cross reactivity against C57BL/6 mouse SIRPα.

Binder | SHP-1 recruitment blocking, IC50 [1] | SHP-1 recruitment blocking, TOP blocking (%) [1] | EC50 [3] | TOP OD450 [3] | EC50 [4] | TOP OD450 [4] | EC50 [5] | TOP OD450 [5] | EC50 [6] | TOP MFI [6] | EC50 [7] | TOP MFI [7] | Kd [9] | koff [9] | kon [9] | IC50 [10] | TOP blocking (%) [10] | IC50 [11] | TOP blocking (%) [11] | % Competition [13] | other results
hu1H9G4 (antibody, V domains shown) VH: QVQLVQSGAEVKKPGASVKVSCKASGYTFTSYWITWVKQAPGQGLEWIGDIYPGSGSTNHIEKFKSKATLTVDTSISTAYMELSRLRSDDTAVYYCATGYGSSYGYFDYWGQGTLVTVSS VL: DIQMTQSPSSLSASVGDRVTITCRASENIYSYLAWYQQKPGKAPKLLIYTAKTLAEGVPSRFSGSGSGTDFTLTISSLQPEDFATYYCQHQYGPPFTFGQGTKLELK | 0.1 nM | 59.5% | 0.03 nM | 3.22 OD450 | 0.24 nM | 2.74 OD450 | 0.48 nM | 1.81 OD450 | 0.3 nM | 7140 MFI | 1.93 nM | 74600 MFI | 3.48 nM | 0.00277 s⁻¹ | 795000 M⁻¹ s⁻¹ | 1.91 nM | 97.5% | 5.74 nM | 98.2% | 14.5% | EC50 [8]: 0.52 nM; TOP MFI [8]: 2720 MFI; IC50 [12]: 0.44 nM; TOP blocking (%) [12]: 97.2%; % Competition [14]: 82.6%; % Competition [15]: 90.5%
042c (antibody, V domains shown, also called chimeric antibody 042c) VH: QIQLVQSGPELKKPGETVKISCRASGYTFTTYGMSWVKQAPGKGLRWMGWINTYSGVSTCADDFKGRFAFSLETSATTAYLQIHNLTNEDTATYFCARDPHSYGNSPAWFPYWGQGTLVTVSA VL: DIVMTQSQKFMSTTIRDRVSITCKASQNVGISVAWYQQKSGQSPKLLIYSASNRYTGVPDRFTGSGSGTDFTLTISNMQSEDLADYFCQQYSSYPLTFGSGTKLAIK | 0.99 nM | 70% | 0.23 nM | 3.23 OD450 | 0.39 nM | 2.69 OD450 | 20.5 nM | 1.22 OD450 | 39.8 nM | 3910 MFI | 1.9 nM | 73200 MFI | 9.2 nM | 0.00545 s⁻¹ | 593000 M⁻¹ s⁻¹ | 3.6 nM | 97.1% | 4.49 nM | 94.6% | 8.9% | binding result [16]: no binding; % Competition [14]: 93.9%; % Competition [15]: 29.8%

More lines, main results first:

SHP-1 recruitment blocking, IC50 [1] | SHP-1 recruitment blocking, TOP blocking (%) [1] | EC50 [3] | TOP OD450 [3] | EC50 [4] | TOP OD450 [4] | EC50 [5] | TOP OD450 [5] | EC50 [6] | TOP MFI [6] | EC50 [7] | TOP MFI [7] | Kd [9] | koff [9] | kon [9] | IC50 [10] | TOP blocking (%) [10] | IC50 [11] | TOP blocking (%) [11] | % Competition [13] | Binder | other results
3.85 nM | 76.4% | – | – | – | – | – | – | – | – | – | – | – | – | – | – | – | – | – | – | 005c (antibody, V domains shown, also called chimeric antibody 005c) VH: EVKLVESGGGLVQPGGSLSLSCAASGFTFTDYYMSWVRQPPGKALEWLGFIKNEANGYTTESSASVKGRFTISRDNSQSILYLQMNALRAEDSATYYCARYDYYGSNYNWYFDAWGTGTTVTVSS VL: DIVMTQSQKFMSPSVGDRVSITCKASQNVRTAVAWYQQKPGQSPKVLIHLASKRHTGVPDRFTGSGSGTDFTLTISNVQSEDLADYFCLQHWIHPLTFGAGTKLELK | EC50 [2]: 3.88 nM
5.66 nM | 51.2% | 2.14 nM | 3.07 OD450 | 0.27 nM | 2.64 OD450 | 45.5 nM | 0.92 OD450 | 22.9 nM | 2630 MFI | 1.5 nM | 67800 MFI | 6.07 nM | 0.00303 s⁻¹ | 499000 M⁻¹ s⁻¹ | 2.74 nM | 95.1% | 4.92 nM | 82.8% | 9.1% | 073c (antibody, V domains shown, also called chimeric antibody 073c) VH: QIQLVQSGPELKKPGETVKISCKASGYTFTTYGMSWVKQAPGKGLKWMVWINTYSGVPTYADDFKGRFAFSLETSASTSYLQINNLKNEDTATYFCARDPHYYGSSPAWFVYWGQGTLVTVSA VL: DIVMTQSQKFMSTTIGDRVSITCEASQIVGIAVAWYQQKPGQSPKLLIYSASNRYTGVPDRFTGSGSGTDFTLTISNMQSEDLANYFCQQYSAYPFTFGSGTKLEVK | EC50 [8]: 12.6 nM; TOP MFI [8]: 728 MFI; binding result [16]: no binding; % Competition [14]: 93.6%; % Competition [15]: 37.7%
